Biological target: myc-tagged human Patched-1 (Ptch1-1B-myc) (human) (UniProt Q13635)
Test: co-IP

UniProt Q13635, sequence (Q13635 whole entry): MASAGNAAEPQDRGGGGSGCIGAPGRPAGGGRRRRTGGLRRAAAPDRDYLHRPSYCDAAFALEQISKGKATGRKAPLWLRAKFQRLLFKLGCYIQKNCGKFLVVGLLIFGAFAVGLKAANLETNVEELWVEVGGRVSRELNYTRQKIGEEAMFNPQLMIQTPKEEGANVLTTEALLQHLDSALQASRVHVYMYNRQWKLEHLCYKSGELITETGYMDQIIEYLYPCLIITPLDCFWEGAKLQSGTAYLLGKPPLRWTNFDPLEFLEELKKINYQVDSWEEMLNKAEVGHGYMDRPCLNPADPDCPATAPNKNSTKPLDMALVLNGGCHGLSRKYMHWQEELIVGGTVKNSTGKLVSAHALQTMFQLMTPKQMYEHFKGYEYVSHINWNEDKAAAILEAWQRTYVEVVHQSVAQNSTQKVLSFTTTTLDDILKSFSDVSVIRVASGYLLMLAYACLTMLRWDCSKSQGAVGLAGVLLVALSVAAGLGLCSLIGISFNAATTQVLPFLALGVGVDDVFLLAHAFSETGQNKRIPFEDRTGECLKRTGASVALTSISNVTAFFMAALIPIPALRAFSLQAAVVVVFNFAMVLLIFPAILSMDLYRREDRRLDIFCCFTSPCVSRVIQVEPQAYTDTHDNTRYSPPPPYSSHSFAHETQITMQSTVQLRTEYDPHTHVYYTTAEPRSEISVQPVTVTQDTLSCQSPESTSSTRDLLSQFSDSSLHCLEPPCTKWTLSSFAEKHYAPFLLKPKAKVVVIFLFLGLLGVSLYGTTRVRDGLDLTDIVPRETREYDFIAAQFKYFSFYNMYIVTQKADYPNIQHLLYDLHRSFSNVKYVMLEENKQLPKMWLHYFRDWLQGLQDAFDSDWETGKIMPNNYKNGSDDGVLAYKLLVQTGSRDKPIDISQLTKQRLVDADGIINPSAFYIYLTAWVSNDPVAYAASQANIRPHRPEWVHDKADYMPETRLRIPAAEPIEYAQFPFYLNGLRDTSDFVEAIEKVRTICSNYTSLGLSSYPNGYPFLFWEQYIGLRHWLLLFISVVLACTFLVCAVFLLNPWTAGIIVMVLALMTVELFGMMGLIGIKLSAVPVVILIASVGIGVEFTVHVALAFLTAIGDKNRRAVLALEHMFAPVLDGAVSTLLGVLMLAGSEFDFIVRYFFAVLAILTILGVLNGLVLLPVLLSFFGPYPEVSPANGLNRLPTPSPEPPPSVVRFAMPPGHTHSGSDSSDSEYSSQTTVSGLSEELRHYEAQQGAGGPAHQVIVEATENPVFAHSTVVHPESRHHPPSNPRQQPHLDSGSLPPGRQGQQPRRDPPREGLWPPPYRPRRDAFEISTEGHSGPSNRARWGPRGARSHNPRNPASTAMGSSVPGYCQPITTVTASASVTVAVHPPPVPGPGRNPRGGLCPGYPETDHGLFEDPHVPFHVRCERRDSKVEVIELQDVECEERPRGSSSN

percent reduction of FL-Dhh binding to Ptch1: 70 to 80%
Substance: N-terminal Sonic Hedgehog (N-Shh) (from UniProt Q62226 25-437) (domain or fragment)

— doi:10.1101/2020.03.03.974444
